From US20250269003A1, “NANO-ENHANCED VACCINE” (University of Virginia Patent Foundation, priority 2022, published 2025)

Tests used:
[1] = Ideal pH range for peptide stability and dissolution; format: physicochemical; settings: pH range required for stability and dissolution of the peptide
Excerpt: (§1) Encapsulation of Melanoma Peptides within Nanoliposomes. The six melanoma peptides that induce melanoma-reactive CD4^+ T cells in patients as well as their protein epitope and ideal pH range for solubility are provided in Table 1. A neutral formulation was initially chosen to encapsulate all peptides and then, through an iterative process, modified formulations to optimize encapsulation efficiencies for several of the peptides. Through this process, three different nanoliposome formulations (neutral, cationic, and anionic) suitable for distinct peptides were identified. However, all of the presently disclosed formulations contained the same base lipid components, including 1,2-distearoyl-sn-glycero-3-phosphocholine (DSPC); 1,2-Dioleoyl-sn-glycero-3-phosphoethanolamine (DOPE); 1,2-distearoyl-sn-glycero-3-phosphoethanolamine-N-[methoxy(polyethylene glycol)-2000] (ammonium salt) (PEG2000PE); KDO2; cholesterol; and a fluorophore (either rhodamine or 1,1′-Dioctadecyl-3,3,3′,3′-Tetramethylindodicarbocyanine, 4-Chlorobenzenesulfonate Salt (DiD)). Each formulation contained DSPC and DOPE at a 2.14:1 molar ratio to form a stable, spherical nanoparticle. In addition, cholesterol at a 30 molar percent was incorporated to increase rigidity and to reduce leakiness. PEG(2000)-PE at 2.5 molar percent was incorporated for biological stability, KDO2 was added to all formulations at 0.1 molar percent, and a fluorescent probe (rhodamine or DiD) was added at 0.2 molar percent for subsequent biodistribution imaging studies. Keeping the molar ratios of these key components constant, dihexadecyl phosphate (DHP) was incorporated at 10 molar percent for the anionic formulation and positively charged lipid 1,2-dioleoyl-3-trimethylammonium-propane (chloride salt) (DOTAP) at 7 molar percent for the cationic formulation. The lipid mixtures were then dried down in a nitrogen blower for roughly 2 hours until all of the chloroform was evaporated. Then, the peptide solutions, (or 1×PBS for the “ghost” formulation), was added to the dried down lipids, the tubes were then vortexed and placed in a heat shaker at 60° C. for 2 hours, followed by sonication in a 60° C. sonic bath for roughly five minutes. After sonication, the liposomes were extruded through a 100-nanometer pore membrane eleven times to create uniformly sized liposomes. The extruded liposomes were subsequently run through a Sepharose gel bead column to separate the liposomal drugs from the free drug. The solution was analyzed using Dynamic Light Scattering (DLS; polydispersity and average hydrodynamic diameter of particles in solution), and mass spectrometry.
(§2) To further ensure optimal encapsulation efficiency of the MHPs, distinct dissolution buffers tailored to each peptide's optimal pH range and previously optimized for in vivo injection of the free peptides into patients enrolled in earlier clinical studies were utilized. Specifically, for the neutral peptide formulations, 1.33 mg/ml sodium bicarbonate (NaHCO3) in a 1:2 solution of lactated Ringers solution (LR) and water respectively (B1); for the cationic formulation, 5 mg/ml NaHCO3 in water (B2); for the WNR anionic formulation, 1 mg/ml NaHCO3 in water (B3); and for the TSYVKVLHHMVKISG (TSY; SEQ ID NO: 1) anionic formulation, 1:9 ratio of 2-(N-morpholino) […] (MES) buffer and water (B4).

[2] = Peptide encapsulation within nanoliposomes (mass spectrometry); format: physicochemical; settings: for Original mass encapsulation: neutral formulation and 1X PBS; for Optimized mass encapsulation: new liposome formulation (charge and buffer B1-B4) keeping optimal pH, full vaccine, n = 3 separate experiments in triplicate; for Encap. Efficiency: optimized formulation, based upon initial 500 μg/ml peptide concentration; for Encap. improvement: optimized versus original mass encapsulation
Excerpt: as §1, §2
Each of the six Melanoma Helper Peptides (6MHP) were initially incorporated in a neutral liposome formulation containing: (DSPC); (DOPE); (PEG2000PE); KDO2; cholesterol; and a fluorophore in ratios of 4.60:2.14:0.25:0.01:3.00:0.02 respectively (see Table 2). After quantifying initial encapsulation masses, an iterative approach was utilized to improve encapsulation via modifying the charge and lipid ratios of the liposomal formulation as well as the buffer for the peptide. The proportional improvements in encapsulation as well as the encapsulation efficiencies are depicted in Table 3.

[3] = test system: SIN lymphocytes; assay: Lymphocyte viability, live-dead marker and flow cytometry; format: cell-based, human; settings: patient SIN samples; free TSY compared with nanoliposomal KDO2/TSY
Excerpt: (§3) Ex Vivo Lymphocyte Stimulation using Immunogenic TSY encapsulated nanoliposomes. Freshly obtained (cryopreserved) peripheral blood mononuclear cells (PBMC) and lymphocytes from the sentinel immunized nodes (SIN) of two patient donors (under IRB protocols, clinical trial Mel41 (NCT00089219; IRB #10464; Slingluff et al., 2008b) were utilized to assess CD4^+ T cell proliferation after treatment with the anionic TSY (MAGE-3281-295 peptide; Table 1) MIP-KDO2 nanoliposome. Firstly, a cell viability study was performed using a live-dead marker and flow cytometry to ensure that cell viability was not impacted by the presence of either the peptides or the liposomes. In this study, SIN lymphocytes from the two patient donors (SIN1 and SIN2) were treated with a variety of free peptides and liposome combinations. […] Cells were acquired on a FACSCANTO™ II flow cytometer (BD Biosciences) maintained by the Carter Immunology Center at the University of Virginia and the data analyzed using FlowJo software (version 10; BD Biosciences).
(§4) Using blood samples from melanoma patients who had previously been vaccinated with a 6MHP vaccine on the Mel41 trial and had developed a robust CD4^+ T cell immune response to the TSY antigen (Slingluff et al., 2008b), lymphocyte viability and CD4^+ T cell proliferation to the TSY nano-formulations ex vivo were analyzed. […]

[4] = test system: CD4^+ T cells from sentinel immunized nodes (SIN1, SIN2); assay: CFSE dye-dilution CD4+ T cell proliferation assay, sentinel immunized node cells; format: cell-based, human; settings: SIN1 and SIN2 donor cells, 2 μg/mL peptide, 5 days
Excerpt: as §3, §4

| Sequence | Ideal pH range [1] | Original mass encapsulation [2] [µg/mL] | Optimized mass encapsulation [2] [µg/mL] | Encap. Efficiency [2] [%] | Encap. improvement [2] [X] | cell viability [3] | CD4^+ T cell proliferation (CFSE dilution) [4] |
| --- | --- | --- | --- | --- | --- | --- | --- |
| AQNILLSNAPLGPQFP (listed as Homo sapiens) [melanoma helper peptide, amino acids 56-70 of human tyrosinase] | 8.5-9.0 | 0.02 ± 0.005 | 6.25 ± 1.13 | 1.25 | 312 | – | – |
| FLLHHAFVDSIFEQWLQRHRP (listed as Homo sapiens) [melanoma helper peptide, amino acids 386-406 of human tyrosinase] | 6.0-8.0 | 28.15 ± 2.05 | 58.61 ± 4.96 | 11.72 | 2.08 | – | – |
| LLKYRAREPVTKAE (listed as Homo sapiens) [melanoma helper peptide, amino acids 121-134 of human MAGE-1,2,3,6] | 6.0-8.0 | 34.56 ± 0.69 | 57.26 ± 14.39 | 11.45 | 1.66 | – | – |
| RNGYRALMDKSLHVGTQCALTRR (listed as Homo sapiens) [melanoma helper peptide, amino acids 51-73 of human Melan-A/MART-1] | 6.0-8.0 | 22.37 ± 0.30 | 19.18 ± 6.36 | 3.29 | 0.85 | – | – |
| TSYVKVLHHMVKISG (listed as Homo sapiens) [melanoma helper peptide, amino acids 281-295 of human MAGE-3] | 5.0-5.5 | 0.17 ± 0.001 | 141.35 ± 2.18 | 28.27 | 831 | no discernable differences in cell viability | expected CD4^+ T cell proliferation response was observed |
| WNRQLYPEWTEAQRLD | 7.0-8.0 | 4.81 ± 0.09 | 7.64 ± 0.99 | 1.53 | 1.59 | – | – |
